Data as given in the supplement of paper PMC10724198.
± gives the standard deviation of the averaged measurements.

Each sequence was assayed on Saccharomyces cerevisiae (assay: protein stability index of tFT-peptide fusion (C-terminal peptide) (PSI (0-1 scale)); higher = more stable (slower turnover)). Conditions: genetic background: wild type; temperature: 30 C.
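Further: PSI is a weighted mean of sequencing reads over stability bins, variants kept only with over 10 reads, mCherry proximal and sfGFP distal, peptide attached via GGGS linker.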

Sequence	protein stability index
LSPGPVHDRSRP	0.675 ± 0.03
LSPIPLPPPLTS	0.699 ± 0.044
LSPLHSPCLPCP	0.679 ± 0.039
LSPPPSPLPPLP	0.679 ± 0.019
LSPRPPSPPPPP	0.688 ± 0.011
LSPRTMYHAYPV	0.712 ± 0.067
LSPSGATFWTPS	0.676 ± 0.055
LSRGGVSCWWGH	0.772 ± 0.033
LSRGLVVSFVLK	0.662 ± 0.014
LSSFIHCLYSHC	0.606 ± 0.035
LSSRVYDCTRQG	0.675 ± 0.045
LSSSLLSLLYNF	0.534 ± 0.039
LSTCVAESIEST	0.68 ± 0.01
LSTPPRLPQPSP	0.703 ± 0.051
LSVLPAFYPRSP	0.758 ± 0.045
LSVPPFSFTLSL	0.807 ± 0.25
LSVPWSTRPFSV	0.703 ± 0.019
LSYSLSSPRVFH	0.7337 ± 0.0022
LTDITGSIRNVH	0.673 ± 0.037
LTDKHNETNINQ	0.6501 ± 0.0042
LTFSRFIENHYL	0.662 ± 0.015
LTGSPDSNPNSV	0.68 ± 0.084
LTHQENNIWVSR	0.703 ± 0.057

Sequence	protein stability index
LTLPPLPPPSLP	0.707 ± 0.0081
LTLTQAPVRTDF	0.677 ± 0.018
LTPFFSRPSVLL	0.72 ± 0.019
LTPRPLPRLSPP	0.705 ± 0.028
LTPYLYPQPSSP	0.673 ± 0.031
LTQPPPAPRVFF	0.699 ± 0.013
LTRRSPSPRTLT	0.644 ± 0.03
LTSLIPPLPFLF	0.669 ± 0.032
LTSSGLSFSAVL	0.7249 ± 0.0027
LTYLLFPSSLQA	0.677 ± 0.04
LVAYSPRFLHSP	0.669 ± 0.038
LVCLFRGCGLRD	0.714 ± 0.0084
LVCRYLGLRCSD	0.597 ± 0.035
LVFCPCQSVVSL	0.59 ± 0.043
LVFGRGCGWLSG	0.664 ± 0.0071
LVFRPVPVIFGL	0.635 ± 0.017
LVFSTLGSCFDG	0.685 ± 0.0099
LVGFGGGGDGVV	0.693 ± 0.032
LVGGGDRPGLGR	0.66 ± 0.0079
LVGHENIVVRRA	0.72 ± 0.011
LVGQVKYMIKEQ	0.684 ± 0.028
LVGSSYGRTDML	0.715 ± 0.016
LVLDCPISEVLL	0.6403 ± 0.0055

Sequence	protein stability index
LVLLPSASPLLL	0.71 ± 0.044
LVLVRPGSVSPE	0.731 ± 0.018
LVLYPFPPLHST	0.6749 ± 0.0053
LVPTQGDFVVLL	0.721 ± 0.053
LVRCGLGASVVV	0.651 ± 0.041
LVRGGHRLSFRL	0.732 ± 0.015
LVSGASHWPSYT	0.694 ± 0.014
LVSPLARLGLMI	0.787 ± 0.05
LVSPPTPPPFPP	0.702 ± 0.059
LVSSSPLPFSPI	0.646 ± 0.079
LVYLASGMYRFV	0.607 ± 0.02
LWAGGVAVAVSR	0.638 ± 0.045
LWCDPVLVLELR	0.776 ± 0.072
LWCWVGGALCGG	0.742 ± 0.17
LWGIAGSGVLVG	0.635 ± 0.0069
LWQGGRAFWQPV	0.679 ± 0.046
LWVGGVGRVRGV	0.69144 ± 0.00047
LWVGVVGRVRGV	0.6609 ± 0.0062
LYGASRCLVARS	0.664 ± 0.0093
LYICNYFKFKKR	0.7096 ± 0.0069
LYIRHPPSAPLP	0.808 ± 0.13
LYKEQRNNCGKI	0.662 ± 0.021
LYLCFDVVKDLG	0.582 ± 0.015

Sequence	protein stability index
LYPRPSRFPPLL	0.732 ± 0.087
LYRPFTAVPPSI	0.816 ± 0.082
LYTISAGEDELN	0.699 ± 0.018
LYTSPLPAAFQL	0.726 ± 0.038
LYYSEKRIKNVN	0.643 ± 0.077
MAEAVVLDPDMV	0.6831 ± 0.0055
MCCSVGGLFFFF	0.649 ± 0.04
MCFLSCCSFRFC	0.6162 ± 0.0044
MCVSSSAGVRQE	0.638 ± 0.054
MDGRVMAETCRA	0.585 ± 0.038
MDHSGYWDISCG	0.801 ± 0.099
MDIVIGSQTEAN	0.7365 ± 0.0036
MERAGTAEGGGA	0.655 ± 0.008
MGAGGGLCGMWA	0.705 ± 0.054
MGGGGGLCGMWA	0.723 ± 0.021
MGHLFIPSQSQS	0.715 ± 0.048
MGKNDSITPELA	0.712 ± 0.029
MGVGCFCCLFVG	0.541 ± 0.011
MHGVSSGSSLVN	0.63 ± 0.038
MIASGGGGEAAY	0.742 ± 0.081
MIGWQADSINKI	0.783 ± 0.022
MISIKNEKKKYT	0.685 ± 0.069
MITQVIKRRKRK	0.688 ± 0.041

Sequence	protein stability index
MKLWSDALNVVR	0.607 ± 0.12
MKRIRKTKIKAR	0.624 ± 0.074
MKRQQENNAPGR	0.616 ± 0.018
MLGHKIILHTYI	0.54735 ± 0.00019
MLRSGDFSSPPN	0.694 ± 0.042
MNRKEREKKRIK	0.697 ± 0.023
MNVPRQLISRFV	0.683 ± 0.064
MPHLARVREVVH	0.6178 ± 0.0026
MQNDKCWVCNQR	0.693 ± 0.029
MRIKSMLHHSKV	0.66213 ± 0.00021
MRIMERWVMGGG	0.795 ± 0.16
MSLLCPSPPFPT	0.695 ± 0.068
MSWSVSDIADDS	0.657 ± 0.0075
MTSSYLCWDVIG	0.632 ± 0.071
MVRNCPYSLSFL	0.734 ± 0.07
MVRWGLGRVYGC	0.786 ± 0.1
MVSSIESHIVLY	0.66 ± 0.0078
MYPFKYGFASWV	0.583 ± 0.016
NALFDLAVMCLD	0.664 ± 0.028
NALLHPRSHLAF	0.686 ± 0.033
NCSPLCLRVASS	0.647 ± 0.029
NDGKTKRVKKRR	0.619 ± 0.065
NDQWKKENRGKK	0.737 ± 0.013

Sequence	protein stability index
NEQGTIIKRYKK	0.737 ± 0.045
NESCRNREPGHV	0.664 ± 0.1
NESSYGNEKNLG	0.723 ± 0.021
NFATLFSLCCLY	0.611 ± 0.011
NFFTLTRCTLFI	0.66684 ± 0.00029
NFMTEGYFWRGE	0.767 ± 0.0087
NFPEATPSNYKV	0.737 ± 0.015
NFYKKLSNKMGQ	0.662 ± 0.039
NGDPRVHTAVAR	0.704 ± 0.054
NGGGMPDRVVSI	0.722 ± 0.024
NGQVAGVGNVAW	0.678 ± 0.015
NGSAYEGRDYAN	0.626 ± 0.02
NICLPLAHRTPG	0.655 ± 0.017
NIHRKLIKNERV	0.694 ± 0.046
NIKKKKKETKNN	0.676 ± 0.024
NIKKNQRKEASK	0.698 ± 0.039
NKGHGAHSRECE	0.65 ± 0.025
NKIKKKRTEPQP	0.66522 ± 7.3e-05
NKKKEKKKNEAK	0.684 ± 0.016
NKKKNKKEEHVE	0.688 ± 0.047
NKKTKNNKGNKQ	0.728 ± 0.063
NKMLCTTEGVAA	0.644 ± 0.038
NKPPGVGHGGVT	0.672 ± 0.025

Sequence	protein stability index
NKRKSKKRNEIE	0.6701 ± 0.0054
NKSHFGHSCYLR	0.64 ± 0.013
NKTKIKKKKKRG	0.657 ± 0.013
NKYEMRDDTMNI	0.681 ± 0.056
NLGLSGRYAPCK	0.689 ± 0.0072
NLRFLFFSSSRF	0.682 ± 0.017
NLSLYFGGVLVL	0.603 ± 0.027
NMKPPTNKGSNK	0.675 ± 0.054
NMLYRKEGWTKE	0.655 ± 0.036
NMMTSVLEGGVG	0.699 ± 0.16
NMVIRLIEKRKK	0.663 ± 0.021
NNKNNKNKIYKK	0.679 ± 0.0091
NNKRNGRIKRKI	0.738 ± 0.02
NNSCPQGHPDAR	0.7574 ± 0.0065
NNSRTNDVRRRK	0.726 ± 0.018
NPCPSVLCSNCD	0.67 ± 0.064
NPLRTQASTTAQ	0.72 ± 0.096
NQHKKGQKKKGI	0.684 ± 0.042
NRGGRKAINENG	0.685 ± 0.036
NRGKDEIMKRDK	0.671 ± 0.066
NRKKIKSIDVRK	0.67 ± 0.07
NRRCAPVHPGPD	0.7217 ± 0.0036
